US10703792B2, “Insulin analogues with selective signaling properties and reduced mitogenicity” (Case Western Reserve University, priority 2015, dated 2020)

How the values were obtained:
[1] = biological target: IR (Homo sapiens, UniProt P06213); conditions: known in the art; cited from earlier work
[2] = system: Sprague-Dawley rats; conditions: one year of treatment; cited from earlier work
[3] = system: human breast-cancer cell line MCF-7; test: MCF-7 colony formation in soft agar (mitogenicity); format: cell-based; conditions: 100 nM protein, 3 weeks, relative to basal; preliminary assays
Protocol: Assay for MCF-7 Colony Formation in Soft Agar.
In our preliminary assays MCF-7 cells (1.5×10^3 cells in 0.75 ml, obtained from ATCC cat #HTB-22), were mixed with an equal volume Bacto-agar at 42° C. This 0.3% agar suspension was poured over a 1.5-ml base of 0.6% agar in 12-well plates and overlaid with basal growth medium with (or without) insulin or insulin analogues at a protein concentration of 100 nM, which was replenished 3× per week. Plates were incubated at 37° C. in a CO2 tissue-culture incubator for 3 weeks, at which time colonies were stained with crystal violet and counted under an inverted microscope. A positive control was provided by IGF-I (not shown) and a negative control by medium lacking insulin or an insulin analogue (“basal” in FIG. 6).

[4] = system: male Lewis rats rendered diabetic by streptozotocin; conditions: statement on a current insulin product, not tested here; cited from earlier work

Substance: Asp^B10-insulin: insulin analogue with His^B10 substituted by Asp, known in the art
- Enhancement of affinity for the IR relative to insulin [1]: twofold
- Mammary tumors on chronic treatment [2]: excess mammary tumors

Substance: human proinsulin: wild-type human proinsulin (SEQ ID NO: 1)
- Mitogenicity: MCF-7 colony formation in soft agar [3]: negligible activities

Substance: insulin detemir
- Nanomoles needed for equivalent therapeutic effects [4]: threefold
